The text below walks through data of article PMC10602865, “Cleavage kinetics of human mitochondrial RNase P and contribution of its non-nuclease subunits”.

Data set [1] deals with T1, TRMT10C (MRPP1) (Homo sapiens, UniProt Q7L0Y3 40-403).
T1 sequence: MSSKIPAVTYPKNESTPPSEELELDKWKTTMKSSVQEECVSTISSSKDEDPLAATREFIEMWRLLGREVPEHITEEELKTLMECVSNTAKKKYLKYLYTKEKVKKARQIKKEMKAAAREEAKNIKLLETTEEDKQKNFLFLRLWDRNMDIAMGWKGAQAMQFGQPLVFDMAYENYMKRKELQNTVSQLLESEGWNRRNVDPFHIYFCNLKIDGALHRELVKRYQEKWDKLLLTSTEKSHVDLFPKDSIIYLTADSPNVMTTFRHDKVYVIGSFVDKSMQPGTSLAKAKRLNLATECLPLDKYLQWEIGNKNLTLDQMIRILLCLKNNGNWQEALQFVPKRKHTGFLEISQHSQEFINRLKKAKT
In words: BLI; no Mg2+; BLI (BLItz, streptavidin sensors): 50 mM Tris-Cl pH 8, 20 mM NaCl, 2 mM DTT, 20 ug/ml BSA, 0.5 U/ul RNase inhibitor, 0.05% Tween-20, with (Lys) or without 4.5 mM MgCl2, 21 C. The note with it: protein: recombinant; tags: C-terminal myc-His6; chain copies: 2; label: 3' biotin (pCp-biotin); tRNA cloverleaf.

The target in data set [2] is T2, PRORP (MRPP3) (Homo sapiens, UniProt O15091 46-583).
T2 sequence: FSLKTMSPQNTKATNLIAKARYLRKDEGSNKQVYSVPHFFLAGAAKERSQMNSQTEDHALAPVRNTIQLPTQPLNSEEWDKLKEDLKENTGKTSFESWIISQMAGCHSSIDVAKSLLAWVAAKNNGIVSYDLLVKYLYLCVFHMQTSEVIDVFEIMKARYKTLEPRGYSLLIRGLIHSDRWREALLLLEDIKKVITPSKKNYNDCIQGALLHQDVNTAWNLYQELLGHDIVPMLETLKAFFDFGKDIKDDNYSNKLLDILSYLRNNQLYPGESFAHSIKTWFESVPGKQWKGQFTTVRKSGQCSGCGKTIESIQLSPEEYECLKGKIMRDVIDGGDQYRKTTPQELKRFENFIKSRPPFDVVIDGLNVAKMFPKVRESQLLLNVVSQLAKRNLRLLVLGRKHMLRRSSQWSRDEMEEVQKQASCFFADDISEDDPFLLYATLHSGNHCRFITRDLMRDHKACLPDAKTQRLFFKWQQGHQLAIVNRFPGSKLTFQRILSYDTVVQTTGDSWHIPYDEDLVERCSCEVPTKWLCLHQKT
The data set is described as above. As to conditions: protein: recombinant; tags: C-terminal His6; label: 3' biotin (pCp-biotin); tRNA cloverleaf.

Data set [3] concerns the target T3, TRMT10C (MRPP1);SDR5C1 (MRPP2, HSD17B10) (Homo sapiens;Homo sapiens, UniProt Q7L0Y3;Q99714 40-403;1-261, |).
T3 sequence 1: T1 sequence
T3 sequence 2: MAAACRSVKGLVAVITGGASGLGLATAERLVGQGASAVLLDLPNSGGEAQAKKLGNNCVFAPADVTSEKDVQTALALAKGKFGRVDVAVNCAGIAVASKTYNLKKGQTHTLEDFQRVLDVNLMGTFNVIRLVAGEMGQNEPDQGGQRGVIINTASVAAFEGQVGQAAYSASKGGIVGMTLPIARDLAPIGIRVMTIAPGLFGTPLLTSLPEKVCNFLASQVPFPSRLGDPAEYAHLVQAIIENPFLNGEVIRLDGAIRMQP
Described as above. As to conditions: protein: recombinant;recombinant; tags: C-terminal myc-His6;N-terminal His6; copies: 1;4; label: 3' biotin (pCp-biotin); tRNA cloverleaf.

The target of data set [4] is T4, SDR5C1 (MRPP2, HSD17B10) (Homo sapiens, UniProt Q99714 1-261).
T4 sequence: T3 sequence 2
In words: BLI; no Mg2+; up to 1 uM SDR5C1; BLI (BLItz, streptavidin sensors): 50 mM Tris-Cl pH 8, 20 mM NaCl, 2 mM DTT, 20 ug/ml BSA, 0.5 U/ul RNase inhibitor, 0.05% Tween-20, with (Lys) or without 4.5 mM MgCl2, 21 C. The note with it: protein: recombinant; tags: N-terminal His6; chain copies: 4; label: 3' biotin (pCp-biotin); tRNA cloverleaf. A general note: In BLI a coated tip is dipped into the sample, and binding shifts an interference pattern.

Data set [5] deals with T1, TRMT10C (MRPP1). The data set can be described thus: BLI; 4.5 mM Mg2+; BLI (BLItz, streptavidin sensors): 50 mM Tris-Cl pH 8, 20 mM NaCl, 2 mM DTT, 20 ug/ml BSA, 0.5 U/ul RNase inhibitor, 0.05% Tween-20, with (Lys) or without 4.5 mM MgCl2, 21 C. The note with it: protein: recombinant; tags: C-terminal myc-His6; chain copies: 2; label: 3' biotin (pCp-biotin); tRNA cloverleaf.

Data set [6] deals with T2, PRORP (MRPP3). Described as above. The note with it: protein: recombinant; tags: C-terminal His6; label: 3' biotin (pCp-biotin); tRNA cloverleaf.
The target of data set [7] is T3, TRMT10C (MRPP1);SDR5C1 (MRPP2, HSD17B10). The description is as above. As to conditions: protein: recombinant;recombinant; tags: C-terminal myc-His6;N-terminal His6; copies: 1;4; label: 3' biotin (pCp-biotin); tRNA cloverleaf.
Data set [8] addresses T4, SDR5C1 (MRPP2, HSD17B10). The data set can be described thus: BLI; 4.5 mM Mg2+; up to 1 uM SDR5C1; BLI (BLItz, streptavidin sensors): 50 mM Tris-Cl pH 8, 20 mM NaCl, 2 mM DTT, 20 ug/ml BSA, 0.5 U/ul RNase inhibitor, 0.05% Tween-20, with (Lys) or without 4.5 mM MgCl2, 21 C. As to conditions: protein: recombinant; tags: N-terminal His6; chain copies: 4; label: 3' biotin (pCp-biotin); tRNA cloverleaf.

B1: pre-tRNAVal, 3'-biotinylated (structured_RNA)
RNA: UGCACUUGGACGAACCAGAGUGUAGCUUAACACAAAGCACCCAACUUACACUUAGGAGAUUUCAACUUAACUUGACCGCUCUGAGCUAAACCUAGCCCCAAACCCACUCCACCUUA
modifications: splint ligation of synthetic RNA (15 nt 5' flank + tRNA nt 1-8) to transcript of 1610-1702; 3' pCp-biotin adds a C
With B1, the Kd – broadly, the free concentration of one partner at which half of the binding sites on the other are occupied at equilibrium, for simple one-to-one binding – with TRMT10C (MRPP1) [1] stood at 20 nM; in the data set with PRORP (MRPP3) [2] it was 18 nM; in data set [3], 13 nM. Besides, the binding result in the data set with SDR5C1 (MRPP2, HSD17B10) [4] is reported as “no binding”.

B2: pre-tRNALys, 3'-biotinylated (structured_RNA)
RNA: ACCCCCUCUAGAGCCCACUGUAAAGCUAACUUAGCAUUAACCUUUUAAGUUAAAGAUUAAGAGAACCAACACCUCUUUACAGUGAAAUGCCCCAAC
modifications: splint ligation of synthetic RNA (15 nt 5' flank + tRNA nt 1-8) to transcript of 8303-8375; 3' pCp-biotin adds a C
In the case of B2, the figures for the Kd (with TRMT10C (MRPP1) [5]; with PRORP (MRPP3) [6]; in data set [7]) were 30 nM, 26 nM and 4 nM, respectively. In addition, in the data set with SDR5C1 (MRPP2, HSD17B10) [8], the binding result is “no binding”.
